Where two headings read alike, the source gives them in different places. No end group written: not given here.
How the values were obtained:
SP34 [1] = test: Masking capability of potential masks of SP34 (ELISA, BLI); assay type: binding; details: mask and linker fused to SP34 VH and/or VL
Description: (§1) Binding of the 19 M-TCEs to both their antigens CEACAM5 and CD3δε was assessed with BLI using ForteBio Red96 as described above.

HT29 cells = test: PBMC co-cultivation assay, M-TCE-induced killing of HT29 cells; assay type: cell-based, human; details: for EC50: HT29 + human PBMC, 72 hours, read-out: Efficacy (EC50); for tumor cell killing efficacy: digested vs undigested, in words; for Digested vs. masked: ratio of EC50 non-digested to MMP9-digested
Description: Five digested and undigested M-TCEs were tested for their tumor cell killing capability in the presence of human PBMC.
A total of 5×10^3 cells in RPMI1640 medium (supplemented with 10% FBS and 2 mM glutamine) of the target cell line (HT29) were seeded in 96-well plates (Day 0). A dilution series of respective antibodies was performed in assay media and added to target cells. On Day 0, a total of 5×10^4 PBMCs were added to each well, and the final reaction volume was adjusted to 200 μl. Percentage viability of target cell was measured by […]. LDH was measured after 72 hours using the Cell Counting Kit-8 (CK04, Dojindo, Japan) according to the manufacturer's recommendations. The results were analyzed as mean and standard deviation (SD) from triplicate wells and plotted as 4-parameter non-linear regression fittings using GraphPad Prism 9 software (GraphPad Software, San Diego, CA, USA).

MMP9 = biological target: T1, MMP9 (Homo sapiens, UniProt P14780); test: Removal of masks by MMP9 digestion, SDS-PAGE; assay type: biochemical; details: 100 nM activated MMP9, 37° C., 3 hr
T1 construct: purchased Acrobiosystems
Description: MMP9 proenzyme (proMMP9), purchased from Acrobiosystems, was dissolved to 100 μg/mL in MMP9 digestion buffer (50 mM Tris, 10 mM CaCl2), 150 mM NaCl, pH 7.6). 4-aminophenylmercuric acetate (APMA) was added to a final concentration of 1 mM. The proMMP9-APMA mixture was incubated at 37° C. for 24 hr to activate proMMP9.
The selected M-TCEs, after adjusting to MMP9 digestion buffer, was mixed with activated MMP9 to a final concentration of 100 nM. The samples were further incubated at 37° C. for 3 hr to allow M-TCEs to be digested by MMP9.
The M-TCEs with 14 AA, 16 AA and 18 AA linker could be completely or nearly completely digested, as only the faster migrating bands could be seen. […] Too short linker would make the removal of the masks difficult, probably because the employed enzyme, MMP9 in this case, could not fully engage with its digestion site in the M-TCEs.

CD3δε [2] = biological target: T2, CD3δε (Homo sapiens, UniProt P07766); test: BLI binding of M-TCEs (captured on AHC sensors) to CD3δε; parameters: purchased ACRO (Beijing, China)
Description: (§2) Bio-Layer Interferometry (BLI) technique was employed for the measurement of protein-protein interactions in this study. A Octet Red96 system and Streptavidin (SA) or AHC biosensors (ForteBio, Fremont) were utilized.
(§3) Measurement of bindings between CD3ε1-27 mutants-SP34 fusion, or M-TCE, and […] was conducted as described above but with AHC sensors to capture M-TCE, and […] was used as the analyte.
as §1
Target sequence in this assay (P07766 22-126 limits assumed): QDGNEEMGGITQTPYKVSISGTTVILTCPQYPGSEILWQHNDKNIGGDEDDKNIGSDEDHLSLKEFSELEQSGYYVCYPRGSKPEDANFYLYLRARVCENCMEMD
Target sequence in this assay (P04234 22-105 partner limits assumed): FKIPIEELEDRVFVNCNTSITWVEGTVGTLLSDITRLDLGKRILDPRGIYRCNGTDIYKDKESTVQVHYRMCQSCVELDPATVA

SP34 [3] = test: BLI binding of SP34 to CD3ε1-27 mutant fusion proteins; details: FIG. 2B
Description: as §3
In some embodiment, binding of SP34 to the second batch of 42 variants of […] mutant fusion proteins were tested by BLI with a ForteBio Red96 as described above.

CD3ε-p7 = biological target: T3, CD3ε-p7 (human, biotinylation at the C-terminus); test: BLI, biotinylated peptide on SA biosensor, SP34 as analyte
T3 construct: also called 23 AA N-terminal CD3ε peptide
T3 peptide: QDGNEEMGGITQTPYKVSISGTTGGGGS
Description: (§4) To measure the binding of SP34 to CD3ε peptides, the peptides were immobilized on the SA biosensor through SA-biotin interaction according the manufacturer's instruction. After running PBS with 0.01% Tween-20 buffer to stabilize baselines, the biosensors were dipped into solid black 96-well plates (Greiner Bio-One, Cat. #65520, Monroe, North Carolina, USA) containing SP34 in indicated concentrations. Association and dissociation were measured accordingly, and binding kinetics were calculated using ForteBio's Data Analysis 12.0 software.
(§5) BLI technology was employed to measure the affinity of the six peptides to SP34 with a ForteBio Red96. These peptides were immobilized on the SA Biosensor and their affinities were measured using SP34 as the analyte. The binding sensorgrams indicate that SP34 binds to all six peptides with very similar profiles (FIG. 1C). […] It is further hypothesized that a N-terminal CD3ε peptide […] can bind to SP34 as well.

CD3ε-p6 = biological target: T4, CD3ε-p6 (human, biotinylation at the C-terminus); test: as above
T4 construct: also called 20 AA N-terminal CD3ε peptide
T4 peptide: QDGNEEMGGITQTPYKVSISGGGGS
Description: as §4, §5

CD3ε-p5 = biological target: T5, CD3ε-p5 (human, biotinylation at the C-terminus); test: as above
T5 construct: also called 17 AA N-terminal CD3ε peptide
T5 peptide: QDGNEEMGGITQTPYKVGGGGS
Description: as §4, §5

CD3ε-p1 = biological target: T6, CD3ε-p1 (human); test: as above
T6 construct: also called 5 AA N-terminal CD3ε peptide
T6 peptide: QDGNEGGGGS-biotin
Description: as §4, §5

CD3ε-p3 = biological target: T7, CD3ε-p3 (human); test: as above
T7 construct: also called 11 AA N-terminal CD3ε peptide
T7 peptide: QDGNEEMGGITGGGGS-biotin
Description: as §4, §5

CD3ε-p2 = biological target: T8, CD3ε-p2 (human); test: as above
T8 construct: also called 8 AA N-terminal CD3ε peptide
T8 peptide: QDGNEEMGGGGGS-biotin
Description: as §4, §5

CD3δε [4] = biological target: T2, CD3δε; test: BLI (Octet Red96), SP34 on AHC biosensor, CD3δε as analyte
CD3 on human PBMC [5] = biological target: T9, CD3 on human PBMC (human, UniProt P07766 23-207); test: cell-based or functional assay
CD3 on human PBMC [6] = biological target: T9, CD3 on human PBMC; test: cell-based or functional assay; remark: listed apart in the source
CD3δε [7] = biological target: T2, CD3δε; test: BLI affinity of SP34 (immobilized on AHC biosensor) to CD3δε as analyte; assay type: binding; parameters: purchased ACRO (Beijing, China)
Description: as §2
Target sequence in this assay (P07766 22-126 limits assumed): as the sequence (P07766 22-126 limits assumed) above
Target sequence in this assay (P04234 22-105 partner limits assumed): as the sequence (P04234 22-105 partner limits assumed) above
CD3δε was purchased from ACRO (Beijing, China) and used as the antigen for SP34 affinity measurement.
SP34 was immobilized on the AHC biosensor and its affinity to CD3δε was measured using the latter as the analyte. This approach was selected as it can avoid potential multivalent binding and give accurate affinity between SP34 and CD3δε.

T1 sequence (P14780 107-707 limits assumed): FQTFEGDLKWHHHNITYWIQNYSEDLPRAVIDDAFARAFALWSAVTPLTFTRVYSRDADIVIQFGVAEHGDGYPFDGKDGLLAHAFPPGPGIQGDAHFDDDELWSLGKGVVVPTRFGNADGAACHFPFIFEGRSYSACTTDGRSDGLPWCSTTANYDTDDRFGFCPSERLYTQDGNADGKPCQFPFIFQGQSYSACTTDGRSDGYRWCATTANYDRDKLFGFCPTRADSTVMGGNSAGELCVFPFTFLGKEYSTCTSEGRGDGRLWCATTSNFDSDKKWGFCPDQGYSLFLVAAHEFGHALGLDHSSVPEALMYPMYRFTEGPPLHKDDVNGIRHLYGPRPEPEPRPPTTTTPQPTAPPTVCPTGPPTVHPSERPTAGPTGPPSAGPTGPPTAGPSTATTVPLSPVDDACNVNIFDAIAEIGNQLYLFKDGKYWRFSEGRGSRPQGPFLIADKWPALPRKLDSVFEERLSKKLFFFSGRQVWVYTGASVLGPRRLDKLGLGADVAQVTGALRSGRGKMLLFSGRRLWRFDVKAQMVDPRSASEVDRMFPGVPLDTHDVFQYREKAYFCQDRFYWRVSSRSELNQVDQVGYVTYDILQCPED
T9 sequence (P07766 23-207): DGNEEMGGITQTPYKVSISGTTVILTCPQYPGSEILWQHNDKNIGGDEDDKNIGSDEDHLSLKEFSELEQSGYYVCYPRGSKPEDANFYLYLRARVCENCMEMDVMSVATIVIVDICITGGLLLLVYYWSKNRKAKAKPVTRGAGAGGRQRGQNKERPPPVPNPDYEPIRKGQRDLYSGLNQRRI

Question: For “L4-D2E: M-TCE; QEGNEEGSGSPLGLGSGS-SP34VH, SEQ ID NO 27”, which “Masking Capability” value (SP34 [1]) is on record?
Answer: Its value is “Yes”.

Question: And the EC50 (HT29 cells; MMP9-digested)?
Answer: Its EC50 is 0.011 nM.

Question: And the EC50 (HT29 cells; Non-digested)?
Answer: Its EC50 is 0.65 nM.

Question: And the “tumor cell killing efficacy” value (HT29 cells)?
Answer: The value was “higher efficacy in inducing tumor cell killing than their undigested counterparts”.

Question: What about the Digested vs. masked (HT29 cells) of the same molecule?
Answer: Its Digested vs. masked is 59×.

Question: What about the “digestion by MMP9” value (MMP9) of the same molecule?
Answer: Its value is “partially digested”.

Question: How did the “Masking Capability” value (SP34 [1]) turn out when “L2-G3R: M-TCE; QDRNEEGSPLGLGS-SP34VH, SEQ ID NO 43” was run?
Answer: Its value is “Yes”.

Question: And the “binding to CD3δε” value (CD3δε [2]; non-digested (masked), compared with non-masked TCE)?
Answer: Its value is “lack of masking capability”.

Question: What about the “digestion by MMP9” value (MMP9) of the same molecule?
Answer: Its value is “could not be digested”.

Question: Which “binding of SP34 to fusion protein” value (SP34 [3]) does the source give for “Q1C: Q1C mutant of the CD3ε1-27-Fc fusion protein” here?
Answer: Its value is “maintained binding”.

Question: For “G3R: G3R mutant of the CD3ε1-27-Fc fusion protein”, which “binding of SP34 to fusion protein” value (SP34 [3]) is on record?
Answer: The value was “maintained binding”.

Question: What does the source list for “L4-G3A: M-TCE; QDANEEGSGSPLGLGSGS-SP34VH, SEQ ID NO 39”?
Answer: Masking Capability (SP34 [1]): Yes; EC50 (HT29 cells; MMP9-digested): 0.012 nM; EC50 (HT29 cells; Non-digested): 1.72 nM; efficacy lower before mask removal (HT29 cells; before vs after MMP9 digestion): ~140 fold; tumor cell killing efficacy (HT29 cells): could induce tumor cell killing both before and after MMP9 digestion; Digested vs. masked (HT29 cells): 144×; EC50 of MMP9-digested M-TCE relative to unmasked TCE (HT29 cells; vs SP34-CEA): approximately 10 fold; binding to CD3δε (CD3δε [2]; after MMP9 digestion): largely restored the binding; digestion by MMP9 (MMP9): partially digested

B1: SP34 chimeric antibody (antibody, V domains shown)
VH: EVKLLESGGGLVQPKGSLKLSCAASGFTFNTYAMNWVRQAPGKGLEWVARIRSKYNNYATYYADSVKDRFTISRDDSQSILYLQMNNLKTEDTAMYYCVRHGNFGNSYVSWFAYWGQGTLVTVSS
VL: QAVVTQESALTTSPGETVTLTCRSSTGAVTTSNYANWVQEKPDHLFTGLIGGTNKRAPGVPARFSGSLIGDKAALTITGAQTEDEAIYFCALWYSNLWVFGGGTKVEIK
notes: VH and VL fused to the constant regions of human IgG1
Question: How did the Kd (CD3ε-p7) turn out when B1 was run?
Answer: Its Kd is 1.3 nM.

Question: What about the koff (CD3ε-p7) of the same molecule?
Answer: Its koff is 0.00013 s⁻¹.

Question: What about the kon (CD3ε-p7) of the same molecule?
Answer: Its kon is 100000 M⁻¹ s⁻¹.

Question: What about the Kd (CD3ε-p6) of the same molecule?
Answer: Its Kd is 3.5 nM.

Question: And the koff (CD3ε-p6)?
Answer: Its koff is 0.00016 s⁻¹.

Question: What about the kon (CD3ε-p6) of the same molecule?
Answer: Its kon is 46000 M⁻¹ s⁻¹.

Question: And the Kd (CD3ε-p5)?
Answer: The Kd was 1.8 nM.

Question: What about the koff (CD3ε-p5) of the same molecule?
Answer: The koff was 9.8e-05 s⁻¹.

Question: And the kon (CD3ε-p5)?
Answer: Its kon is 54000 M⁻¹ s⁻¹.

Question: What about the Kd (CD3ε-p1) of the same molecule?
Answer: Its Kd is 0.99 nM.

Question: What about the koff (CD3ε-p1) of the same molecule?
Answer: The koff was 0.00016 s⁻¹.

Question: And the kon (CD3ε-p1)?
Answer: Its kon is 160000 M⁻¹ s⁻¹.

Question: What about the Kd (CD3ε-p3) of the same molecule?
Answer: The Kd was 2 nM.

Question: What about the koff (CD3ε-p3) of the same molecule?
Answer: The koff was 0.00011 s⁻¹.

Question: And the kon (CD3ε-p3)?
Answer: The kon was 56000 M⁻¹ s⁻¹.

Question: And the Kd (CD3ε-p2)?
Answer: Its Kd is 3.6 nM.

Question: What about the koff (CD3ε-p2) of the same molecule?
Answer: The koff was 0.00024 s⁻¹.

Question: And the kon (CD3ε-p2)?
Answer: The kon was 65000 M⁻¹ s⁻¹.

Question: And the Kd (CD3δε [4])?
Answer: Its Kd is 5.8 nM.

Question: What about the koff (CD3δε [4]) of the same molecule?
Answer: The koff was 0.0032 s⁻¹.

Question: What about the kon (CD3δε [4]) of the same molecule?
Answer: The kon was 550000 M⁻¹ s⁻¹.

B2: MMP9-digested L4-G3A (bispecific antibody, not shown: small tags and cut ends)
heavy: B1 VH
light: B1 VL
chain: EVQLVESGGGFVQAGESLTLSCTSSTLTFTPYRMAWYRQAPGKQRDLVADISSGDGRTTNYADFAKGRFTISRDNIKNTVFLRMTNLKPEDTAVYYCNTFVSFVGIARSWGQGTQVTVSSESKYGPPCPPCPAPEAAGGPSVFLFPPKPKDTLMISRTPEVTCVVVDVSQEDPEVQFNWYVDGVEVHNAKTKPREEQFNSTYRVVSVLTVLHQDWLNGKEYKCKVSNKGLPSSIEKTISKAKGQPREPQVCTLPPSQEEMTKNQVSLSCAVKGFYPSDIAVEWESNGQPENNYKTTPPVLDSDGSFFLVSRLTVDKSRWQEGNVFSCSVMHEALHNRFTQKSLSLSL
Question: What does the source list for B2?
Answer: EC50 of M-TCE-induced killing of HT29 cells in the presence of human PBMC (CD3 on human PBMC [5]): 0.012 nM; killing EC50 of MMP9-digested M-TCE against that of unmasked TCE SP34-CEA (CD3 on human PBMC [6]): ~10 fold

B3: SP34: anti-CD3 antibody; VH and VL (SEQ ID NOs 1, 2) fused to human IgG1 constant regions, chimeric antibody (antibody, V domains shown)
VH: B1 VH
VL: B1 VL
modifications: human IgG1 constant regions; VH of anti-CD3 antibody SP34; VL of anti-CD3 antibody SP34
Question: For B3, which ka (CD3δε [7]; SP34 immobilized, CD3δε 9.4-150 nM as analyte) is on record?
Answer: Its ka is 550000 M⁻¹ s⁻¹.

Question: And the kd (CD3δε [7]; SP34 immobilized, CD3δε as analyte)?
Answer: Its kd is 0.0032 s⁻¹.

Question: And the Kd (CD3δε [7]; monovalent binding of SP34 to CD3δε)?
Answer: The Kd was 5.8 nM.
